The values below come from patent publication US20220098307A1 (WUHAN YZY BIOPHARMA, published 2022).

Where a chain is given by its changes, count along the chain named. In names and notes the source's numbering stands.

B1: M1IC-G2 (bispecific antibody)
chain: not shown
heavy: EVKLDETGGGLVQPGRPMKLSCVASGFTFSDYWMNWVRQSPEKGLEWVAQIRNKPYNYETYYSDSVKGRFTISRDDSKSSVYLQMNNLRVEDMGIYYCTGSYYGMDYWGQGTSVTVSSASTKGPSVFPLAPSSKSTSGGTAALGCLVKDYFPEPVTVSWNSGALTSGVHTFPAVLQSSGLYSLSSVVTVPSSSLGTQTYICNVNHKPSNTKVDKKVEPKSCDKTHTCPPCPAPPVAGPSVFLFPPKPKDTLMISRTPEVTCVVVDVSHEDPEVQFNWYVDGVEVHNAKTKPREEQFNSTFRVVSVLTVVHQDWLNGKEYKCKVSNKGLPAPIEKTISKTKGQPREPQVYTLPPCRDELTKNQVSLWCLVKGFYPSDIAVEWESNGQPENNYKTTPPVLDSDGSFFLYSKLTVDKSRWQQGNVFSCSVMHEALHNHYTQKSLSLSPGK
light: DVVMTQTPLSLPVSLGDQASISCRSSQSLVHSNGNTYLRWYLQKPGQSPKVLIYKVSNRFSGVPDRFSGSGSGTDFTLKISRVEAEDLGVYFCSQSTHVPWTFGGGTKLEIKRTVAAPSVFIFPPSDEQLKSGTASVVCLLNNFYPREAKVQWKVDNALQSGNSQESVTEQDSKDSTYSLSSTLTLSKADYEKHKVYACEVTHQGLSSPVTKSFNRGEC
notes: structure 1 isotype control; CH2 G2CH2
B2: M1IC-WT (bispecific antibody)
chain: not shown
heavy: not shown
light: B1 light
notes: structure 1 isotype control; CH2 WT; also called MlIC-WT
B3: M1IC-GG2 (bispecific antibody)
chain: not shown
heavy: B1 heavy with C230G
light: B1 light
notes: structure 1 isotype control; CH2 GG2CH2
B4: M1IC-NA (bispecific antibody)
chain: not shown
heavy: EVKLDETGGGLVQPGRPMKLSCVASGFTFSDYWMNWVRQSPEKGLEWVAQIRNKPYNYETYYSDSVKGRFTISRDDSKSSVYLQMNNLRVEDMGIYYCTGSYYGMDYWGQGTSVTVSSASTKGPSVFPLAPSSKSTSGGTAALGCLVKDYFPEPVTVSWNSGALTSGVHTFPAVLQSSGLYSLSSVVTVPSSSLGTQTYICNVNHKPSNTKVDKKVEPKSCDKTHTCPPCPAPELLGGPSVFLFPPKPKDTLMISRTPEVTCVVVDVSHEDPEVKFNWYVDGVEVHNAKTKPREEQYASTYRVVSVLTVLHQDWLNGKEYKCKVSNKALPAPIEKTISKAKGQPREPQVYTLPPCRDELTKNQVSLWCLVKGFYPSDIAVEWESNGQPENNYKTTPPVLDSDGSFFLYSKLTVDKSRWQQGNVFSCSVMHEALHNHYTQKSLSLSPGK
light: B1 light
notes: structure 1 isotype control; CH2 N297A
B5: M1IC-G2D (bispecific antibody)
chain: not shown
heavy: B1 heavy with D270A
light: B1 light
notes: structure 1 isotype control; CH2 G2DCH2
B6: M1IC-FES (bispecific antibody)
chain: not shown
heavy: B4 heavy with L235F, L236E, A298N, P332S
light: B1 light
notes: structure 1 isotype control; CH2 FES
B7: M1IC-SG2 (bispecific antibody)
chain: not shown
heavy: B1 heavy with C230S
light: B1 light
notes: structure 1 isotype control; CH2 SG2CH2
B8: M1IC-DG2D (bispecific antibody)
chain: not shown
heavy: B1 heavy with D265A, D270A
light: B1 light
notes: structure 1 isotype control; CH2 DG2DCH2; also called MlIC-DG2D
B9: M1IC-AG2 (bispecific antibody)
chain: not shown
heavy: B1 heavy with C230A
light: B1 light
notes: structure 1 isotype control; CH2 AG2CH2
B10: M1IC-PG2 (bispecific antibody)
chain: not shown
heavy: B1 heavy with C230P
light: B1 light
notes: structure 1 isotype control; CH2 PG2CH2
B11: M1IC-DG2 (bispecific antibody)
chain: not shown
heavy: B1 heavy with D265A
light: B1 light
notes: structure 1 isotype control; CH2 DG2CH2
B12: M1IC-AAG (bispecific antibody)
chain: not shown
heavy: not shown
light: B1 light
notes: structure 1 isotype control; CH2 AAG
B13: CD38-M1-G2 (bispecific antibody, human IgG1, kappa)
chain: QVQLVESGGGVVQPGRSLRLSCAASGFTFSTYAMNWVRQAPGKGLEWVARIRSKYNNYATYYADSVKDRFTISRDDSKNTLYLQMNSLRAEDTAVYYCARHGNFGNSYVSWFAYWGQGTLVTVSSGGGGSGGGGSGGGGSQTVVTQEPSLTVSPGGTVTLTCRSSTGAVTTSNYANWVQQKPGQAPRGLIGGTNKRAPGVPARFSGSLLGGKAALTLSGVQPEDEAEYYCALWYSNLWVFGGGTKVEIKGRGRGSDKTHTCPPCPAPPVAGPSVFLFPPKPKDTLMISRTPEVTCVVVDVSHEDPEVQFNWYVDGVEVHNAKTKPREEQFNSTFRVVSVLTVVHQDWLNGKEYKCKVSNKGLPAPIEKTISKTKGQPREPQVCTLPPSRDELTKNQVSLSCAVKGFYPSDIAVEWESNGQPENNYKTTPPVLDSDGSFFLVSKLTVDKSRWQQGNVFSCSVMHEALHNHYTQKSLSLSPGK
heavy: EVQLLESGGGLVQPGGSLRLSCAVSGFTFNSFAMSWVRQAPGKGLEWVSAISGSGGGTYYADSVKGRFTISRDNSKNTLYLQMNSLRAEDTAVYFCAKDKILWFGEPVFDYWGQGTLVTVSSASTKGPSVFPLAPSSKSTSGGTAALGCLVKDYFPEPVTVSWNSGALTSGVHTFPAVLQSSGLYSLSSVVTVPSSSLGTQTYICNVNHKPSNTKVDKKVEPKSCDKTHTCPPCPAPPVAGPSVFLFPPKPKDTLMISRTPEVTCVVVDVSHEDPEVQFNWYVDGVEVHNAKTKPREEQFNSTFRVVSVLTVVHQDWLNGKEYKCKVSNKGLPAPIEKTISKTKGQPREPQVYTLPPCRDELTKNQVSLWCLVKGFYPSDIAVEWESNGQPENNYKTTPPVLDSDGSFFLYSKLTVDKSRWQQGNVFSCSVMHEALHNHYTQKSLSLSPGK
light: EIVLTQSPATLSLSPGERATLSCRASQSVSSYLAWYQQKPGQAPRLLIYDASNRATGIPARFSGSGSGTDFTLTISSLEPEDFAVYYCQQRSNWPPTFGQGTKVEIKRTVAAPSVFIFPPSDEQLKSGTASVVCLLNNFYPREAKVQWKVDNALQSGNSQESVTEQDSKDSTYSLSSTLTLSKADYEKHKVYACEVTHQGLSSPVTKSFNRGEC
notes: structure 1; CD38 x CD3; CH2 G2CH2
B14: CD38-M1-SG2 (bispecific antibody, human IgG1, kappa)
chain: B13 chain with C264S
heavy: B13 heavy with C234S
light: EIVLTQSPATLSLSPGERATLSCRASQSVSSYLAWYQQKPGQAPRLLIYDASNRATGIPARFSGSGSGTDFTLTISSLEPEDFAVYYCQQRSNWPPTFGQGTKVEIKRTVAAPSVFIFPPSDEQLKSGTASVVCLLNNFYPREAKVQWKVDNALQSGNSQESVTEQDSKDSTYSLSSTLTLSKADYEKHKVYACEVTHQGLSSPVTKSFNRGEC
notes: structure 1; CD38 x CD3; CH2 SG2CH2
B15: CD38-M1-FES (bispecific antibody, human IgG1, kappa)
chain: QVQLVESGGGVVQPGRSLRLSCAASGFTFSTYAMNWVRQAPGKGLEWVARIRSKYNNYATYYADSVKDRFTISRDDSKNTLYLQMNSLRAEDTAVYYCARHGNFGNSYVSWFAYWGQGTLVTVSSGGGGSGGGGSGGGGSQTVVTQEPSLTVSPGGTVTLTCRSSTGAVTTSNYANWVQQKPGQAPRGLIGGTNKRAPGVPARFSGSLLGGKAALTLSGVQPEDEAEYYCALWYSNLWVFGGGTKVEIKGGGGSDKTHTCPPCPAPEFEGGPSVFLFPPKPKDTLMISRTPEVTCVVVDVSHEDPEVKFNWYVDGVEVHNAKTKPREEQYNSTYRVVSVLTVLHQDWLNGKEYKCKVSNKALPASIEKTISKAKGQPREPQVCTLPPSRDELTKNQVSLSCAVKGFYPSDIAVEWESNGQPENNYKTTPPVLDSDGSFFLVSKLTVDKSRWQQGNVFSCSVMHEALHNHYTQKSLSLSPGK
heavy: EVQLLESGGGLVQPGGSLRLSCAVSGFTFNSFAMSWVRQAPGKGLEWVSAISGSGGGTYYADSVKGRFTISRDNSKNTLYLQMNSLRAEDTAVYFCAKDKILWFGEPVFDYWGQGTLVTVSSASTKGPSVFPLAPSSKSTSGGTAALGCLVKDYFPEPVTVSWNSGALTSGVHTFPAVLQSSGLYSLSSVVTVPSSSLGTQTYICNVNHKPSNTKVDKKVEPKSCDKTHTCPPCPAPEFEGGPSVFLFPPKPKDTLMISRTPEVTCVVVDVSHEDPEVKFNWYVDGVEVHNAKTKPREEQYNSTYRVVSVLTVLHQDWLNGKEYKCKVSNKALPASIEKTISKAKGQPREPQVYTLPPCRDELTKNQVSLWCLVKGFYPSDIAVEWESNGQPENNYKTTPPVLDSDGSFFLYSKLTVDKSRWQQGNVFSCSVMHEALHNHYTQKSLSLSPGK
light: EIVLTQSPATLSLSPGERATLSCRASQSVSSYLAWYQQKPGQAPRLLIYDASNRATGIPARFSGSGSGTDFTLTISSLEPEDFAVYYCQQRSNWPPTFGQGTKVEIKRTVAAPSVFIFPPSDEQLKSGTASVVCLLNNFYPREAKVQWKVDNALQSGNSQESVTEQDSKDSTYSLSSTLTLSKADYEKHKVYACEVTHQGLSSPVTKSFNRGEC
notes: structure 1; CD38 x CD3; CH2 FES

For the assay, the target named is T1, Monkey CD3 (monkey).
T1 construct: whole, on cells; also called CD3 of monkey CD3 positive T cells
In words: flow cytometry, monkey T cells. On the technique in general: A flow cytometer gives signals particle by particle.
B1: the midpoint of the response, the EC50, lay at 10.4 nM.
B2: the half-maximal effective concentration (EC50) (as a rule, the concentration needed to bring the measured effect to its halfway point) came to 19.8 nM.
Molecule B3 yielded an EC50 of 13 nM.
In turn, B4 registered an EC50 of 9.63 nM.
In turn, B5 returned an EC50 of 10.6 nM.
The molecule B6 had an EC50 of 11.4 nM.
B7 registered an EC50 of 13.2 nM.
The molecule B8 returned an EC50 of 16 nM.
On to B9, for which the half-maximal effective concentration (EC50) was determined as 14.2 nM.
With B10 the figure was 17.8 nM; with B11, 14.5 nM; with B12, 8.79 nM.
As to B13, the concentration giving a half-maximal response (EC50) stood at 142 nM.
In the case of B14, the EC50 amounted to 159 nM.
On to B15, for which the 50% effective concentration (EC50) turned out to be 291 nM.
